Reference: patent CN112794909A (GUANGZHOU EXCELMAB BIOMEDICAL TECH CO LTD, dated 2021)

T1: 重组人TIGIT蛋白抗原 (human, UniProt Q495A1 21-141, limits assumed)
T1 construct: Made as TIGIT-Fc in 293F, cut with TEV protease and purified; also called TIGIT抗原; 人TIGIT抗原
T1 sequence (looked up): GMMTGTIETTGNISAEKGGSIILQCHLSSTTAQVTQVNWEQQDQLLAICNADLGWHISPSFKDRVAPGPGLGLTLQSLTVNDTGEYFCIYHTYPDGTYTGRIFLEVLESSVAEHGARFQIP

T2: CTLA4抗原 (UniProt P16410 36-161, limits assumed)
T2 sequence (looked up): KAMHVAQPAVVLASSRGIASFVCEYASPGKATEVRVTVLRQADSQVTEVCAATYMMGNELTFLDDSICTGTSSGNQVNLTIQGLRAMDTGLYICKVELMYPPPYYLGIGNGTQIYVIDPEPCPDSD

T3: LAG-3抗原 (UniProt P18627 23-450, limits assumed)
T3 sequence (looked up): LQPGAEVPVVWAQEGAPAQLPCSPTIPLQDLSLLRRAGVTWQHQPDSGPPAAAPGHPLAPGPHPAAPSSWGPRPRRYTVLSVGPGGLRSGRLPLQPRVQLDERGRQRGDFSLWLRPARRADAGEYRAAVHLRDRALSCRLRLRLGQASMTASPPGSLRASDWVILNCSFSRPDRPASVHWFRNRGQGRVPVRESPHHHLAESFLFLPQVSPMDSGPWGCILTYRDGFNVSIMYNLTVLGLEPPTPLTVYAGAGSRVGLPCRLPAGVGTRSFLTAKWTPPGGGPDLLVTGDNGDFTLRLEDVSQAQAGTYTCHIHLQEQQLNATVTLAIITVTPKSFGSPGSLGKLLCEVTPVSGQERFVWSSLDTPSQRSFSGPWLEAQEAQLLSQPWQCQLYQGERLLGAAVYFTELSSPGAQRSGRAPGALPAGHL


Assays:
[1] = molecular target: T1, 重组人TIGIT蛋白抗原; experiment: ELISA, TIGIT antigen coated, HRP anti-human IgG
[2] = molecular target: T1, 重组人TIGIT蛋白抗原; experiment: ELISA, TIGIT antigen coated
[3] = molecular target: PD-L1抗原 (UniProt Q9NZQ7 19-238, limits assumed); experiment: ELISA, antigen coated
[4] = molecular target: T2, CTLA4抗原; experiment: ELISA, antigen coated
[5] = molecular target: PD-1抗原 (UniProt Q15116 25-167, limits assumed); experiment: ELISA, antigen coated
[6] = molecular target: T3, LAG-3抗原; experiment: ELISA, antigen coated
[7] = molecular target: T1, 重组人TIGIT蛋白抗原; experiment: ELISA, human TIGIT antigen coated

PD-1抗原, sequence (Q15116 25-167 limits assumed): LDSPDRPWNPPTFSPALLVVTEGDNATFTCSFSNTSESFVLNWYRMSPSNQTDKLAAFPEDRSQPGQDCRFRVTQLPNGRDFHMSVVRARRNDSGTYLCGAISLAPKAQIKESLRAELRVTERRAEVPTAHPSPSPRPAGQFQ
PD-L1抗原, sequence (Q9NZQ7 19-238 limits assumed): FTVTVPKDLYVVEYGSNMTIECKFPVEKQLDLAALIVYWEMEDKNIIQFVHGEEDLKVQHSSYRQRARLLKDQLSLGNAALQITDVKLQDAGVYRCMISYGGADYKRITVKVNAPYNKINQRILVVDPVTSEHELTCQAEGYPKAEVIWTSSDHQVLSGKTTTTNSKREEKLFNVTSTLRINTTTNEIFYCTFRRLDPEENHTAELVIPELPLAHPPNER

Row | EC50 [1] [µg/mL] | EC50 [2] [µg/mL] | binding result [3] | binding result [4] | binding result [5] | binding result [6] | EC50 [7] [µg/mL] | Binder
1 | 0.125 | 0.099 |  |  |  |  |  | 鼠源抗TIGIT单链抗体mT251 (mT251 scFv-Fc重组蛋白) (scFv, V domains shown) VH: DVKLKESGPSLVKPSQTLSLTCSVTGDSITSGFWNWIRKFPGNKLEYMGYISYSGSSYYNPSLKSRISITRDTSKNQYYLQLNSVTTEDTATYYCAAGDFGNYGYAMDNWGQGTSVTVSS VL: DVLMTQSHKFMSTSVGDRVSITCKASQRVTTAVAWYQQKPGQSPKLLIYSASYRYTGVPDRFTGSGSGTDFTFTITSVQPEDLAIYYCQQYYSTPLTFGAGTKLEIK
2 |  | 0.0741 | no binding | no binding | no binding | no binding | 0.155 | 人源化抗体hmT251 (antibody, V domains shown, also called 人源化抗TIGIT抗体hmT251; 人源化单链抗体hmT251) VH: DVRLKESGPGLVKPSQTLSLTCTVSGGSITSGFWNWIRKHPGNGLEYIGYISYSGSSYYNPSLKSRVTISRDTSKNQYSLKLSSVTAADTAVYYCAAGDFGNYGYAMDVWGQGTTVTVSS VL: DVQMTQSPSSLSASVGDRVTITCKASQRVTTAVAWYQQKPGKSPKLLIYSASYRYTGVPDRFTGSGSGTDFTLTISSLQPEDFATYYCQQYYSTPLTFGGGTKVEIK
